Results from patent US20230002507A1 (Novartis, published 2023).

Assays:
Human FXI activated = Human FXI activated (human, UniProt P03951 19-387; P03951 388-625); test: cell-based or functional assay
Human FXI zymogen = Human FXI zymogen (human, UniProt P03951 19-625); test: cell-based or functional assay
Human FXI zymogen, sequence (P03951 19-625 C226S limits assumed): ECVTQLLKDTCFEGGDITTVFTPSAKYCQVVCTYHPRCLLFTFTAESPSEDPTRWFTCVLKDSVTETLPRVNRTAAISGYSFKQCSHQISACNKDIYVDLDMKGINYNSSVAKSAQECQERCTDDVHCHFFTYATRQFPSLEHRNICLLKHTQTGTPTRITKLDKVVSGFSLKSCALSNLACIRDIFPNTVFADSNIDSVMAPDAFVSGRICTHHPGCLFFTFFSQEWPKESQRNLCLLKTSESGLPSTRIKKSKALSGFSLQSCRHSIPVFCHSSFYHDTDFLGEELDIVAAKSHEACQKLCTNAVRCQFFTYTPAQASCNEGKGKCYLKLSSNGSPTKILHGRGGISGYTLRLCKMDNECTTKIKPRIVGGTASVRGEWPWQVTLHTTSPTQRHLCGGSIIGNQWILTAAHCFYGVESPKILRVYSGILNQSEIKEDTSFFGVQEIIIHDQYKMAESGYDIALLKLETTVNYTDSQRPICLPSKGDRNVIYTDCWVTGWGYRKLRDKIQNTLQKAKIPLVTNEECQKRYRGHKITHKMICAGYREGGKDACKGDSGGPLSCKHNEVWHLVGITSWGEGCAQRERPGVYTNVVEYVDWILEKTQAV

Human FXI activated, sequence (P03951 19-387 C226S limits assumed, chain 1 of 2): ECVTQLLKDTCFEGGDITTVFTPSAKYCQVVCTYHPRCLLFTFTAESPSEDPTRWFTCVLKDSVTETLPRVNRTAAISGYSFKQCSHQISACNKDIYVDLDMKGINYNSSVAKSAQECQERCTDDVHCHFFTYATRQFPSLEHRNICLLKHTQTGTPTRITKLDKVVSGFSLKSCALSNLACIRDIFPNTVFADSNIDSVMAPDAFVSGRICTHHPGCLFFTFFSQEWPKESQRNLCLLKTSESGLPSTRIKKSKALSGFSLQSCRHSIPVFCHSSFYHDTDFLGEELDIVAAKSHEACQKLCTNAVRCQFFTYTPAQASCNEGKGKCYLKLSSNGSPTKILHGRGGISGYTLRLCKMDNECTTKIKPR
Human FXI activated, sequence (P03951 388-625 limits assumed, chain 2 of 2): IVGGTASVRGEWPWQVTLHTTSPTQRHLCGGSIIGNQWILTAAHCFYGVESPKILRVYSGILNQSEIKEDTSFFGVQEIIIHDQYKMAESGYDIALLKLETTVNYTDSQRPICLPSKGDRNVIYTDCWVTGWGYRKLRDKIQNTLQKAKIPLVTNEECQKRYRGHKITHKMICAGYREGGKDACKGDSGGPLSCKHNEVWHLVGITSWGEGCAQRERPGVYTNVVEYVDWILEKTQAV

B1: NOV1401-IgG (antibody, V domains shown)
VH: QVQLLESGGGLVQPGGSLRLSCAASGFTFSTAAMSWVRQAPGKGLEWVSGISGSGSSTYYADSVKGRFTISRDNSKNTLYLQMNSLRAEDTAVYYCARELSYLYSGYYFDYWGQGTLVTVSS
VL: QSVLTQPPSASGTPGQRVTISCSGSSSNIGSNDVSWYQQLPGTAPKLLIYKNYNRPSGVPDRFSGSKSGTSASLAISGLQSEDEADYYCSAWDQRQFDVVFGGGTKLTVLG
B1 was tested, and the “IC50, inhibition of FXIa enzymatic activity (cleavage of the fluorescent peptide substrate BS-2494)” value (Human FXI activated) was roughly 0.16 nM, the “IC50, inhibition of the enzymatic activity of full length human FXIa (cleavage of a fluorescently labelled peptide)” value (Human FXI activated) was 0.16 nM and the “IC50, thrombin generation assay (TGA) in pooled human plasma” value (Human FXI zymogen) was 24 nM.
